Numbering of substitutions follows the chain as printed. Names may count otherwise.
B1: FLP136: PfHPPD variant P215L, E335P, G336F (protein)
chain: MADLYENPMGLMGFEFIEFASPTPGTLEPIFEIMGFTKVATHRSKNVHLYRQGEINLILNNEPNSIASYFAAEHGPSVCGMAFRVKDSQKAYNRALELGAQPIHIDTGPMELNLPAIKGIGGAPLYLIDRFGEGSSIYDIDFVYLEGVERNPVGAGLKVIDHLTHNVYRGRMVYWANFYEKLFNFREARYFDIKGEYTGLTSKAMSAPDGMIRILLNEESSKGAGQIEEFLMQFNGEGIQHVAFLTDDLVKTWDALKKIGMRFMTAPPDTYYEMLEGRLPDHGEPVDQLQARGILLDGSSVEGDKRLLLQIFSETLMGPVFFEFIQRKGDDGFGPFNFKALFESIERDQVRRGVLTAD
modifications: HPPD variant - FLP136
notes: PfHPPD variant P215L, E335P, G336F
B2: FLP202: PfHPPD variant P215L, E335P, G336F, A340E (protein)
chain: B1 chain with A340E
modifications: HPPD variant - FLP202
notes: PfHPPD variant P215L, E335P, G336F, A340E

Tested on: Pseudomonas fluorescens HPPD protein
Assay: HGD assay: HPPD activity coupled to HGA dioxygenase, pI50 and type of inhibition (time-course)
Assay type: biochemical
Settings: for tolerance (pI50) Cmpd. 1: inhibitor Cmpd. 1; for tolerance (pI50) Cmpd. 1 / tolerance (pI50) Cmpd. 2 / tolerance (pI50) Cmpd. 3 / tolerance (pI50) Cmpd. 4 / tolerance (pI50) Cmpd. 5 / tolerance (pI50) DKN / tolerance (pI50) MST / tolerance (pI50) TBT: HGD assay; for tolerance (pI50) Cmpd. 2: inhibitor Cmpd. 2; for tolerance (pI50) Cmpd. 3: inhibitor Cmpd. 3; for tolerance (pI50) Cmpd. 4: inhibitor Cmpd. 4; for tolerance (pI50) Cmpd. 5: inhibitor Cmpd. 5; for tolerance (pI50) DKN: inhibitor diketonitrile (DKN); for tolerance (pI50) MST: inhibitor mesotrione (MST); for tolerance (pI50) TBT: inhibitor tembotrione (TBT)
Procedure, shortened: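 Purified Pseudomonas fluorescens HPPD, room temperature. OD assay: 50 mM Tris-HCl pH 7.8, 0.5 mM HPP, 10 mM ascorbate, catalase, 24 min, remaining HPP derivatised with DNP, read at 405 nm, inhibitor 5.0×10^−6 to 5.0×10^−4 M. HGD assay: 200 mM Tris-HCl pH 7.6, 600 μM HPP, 20 μM FeSO4, coupled HGA dioxygenase, initial rates at 318 nm, inhibitor ≤100 μM, time-course gives inhibition type; pI50 from 4-parameter fits.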

| Molecule | mechanism of inhibition by diketonitrile (DKN), time-course of inhibition | mechanism of inhibition by mesotrione (MST), time-course of inhibition | mechanism of inhibition by tembotrione (TBT), time-course of inhibition | tolerance (pI50) Cmpd. 1 | tolerance (pI50) Cmpd. 2 | tolerance (pI50) Cmpd. 3 | tolerance (pI50) Cmpd. 4 | tolerance (pI50) Cmpd. 5 | tolerance (pI50) DKN | tolerance (pI50) MST | tolerance (pI50) TBT |
| --- | --- | --- | --- | --- | --- | --- | --- | --- | --- | --- | --- |
| B1 | fully reversible inhibitors | fully reversible inhibitors | fully reversible inhibitors | 5.6 | 5.9 | 5.6 | 6.0 | 5.6 | 4.0 | 4.5 | 5.3 |
| B2 | fully reversible inhibitors | fully reversible inhibitors | fully reversible inhibitors | 4.1 | 4.7 | 4.3 | 5.7 | 4.3 | <4 | <4 | 4.2 |

Reference: US10400249B2, “HPPD variants and methods of use” (priority 2014, dated 2019)
